Values belong to the binder of their own block, whether it stands above or below them.
Assays:
cynomolgus IL-18Rα = biological target: T1, cynomolgus IL-18Rα (cynomolgus, UniProt A0A2K5V3J9 19-328); experiment: SPR (Carterra LSA), antibody captured on anti-human IgG-Fc, monomeric antigen as analyte, 25 C
T1 construct: also called Cyno IL-18Rα; non-human primate IL-18Rα
T1 sequence: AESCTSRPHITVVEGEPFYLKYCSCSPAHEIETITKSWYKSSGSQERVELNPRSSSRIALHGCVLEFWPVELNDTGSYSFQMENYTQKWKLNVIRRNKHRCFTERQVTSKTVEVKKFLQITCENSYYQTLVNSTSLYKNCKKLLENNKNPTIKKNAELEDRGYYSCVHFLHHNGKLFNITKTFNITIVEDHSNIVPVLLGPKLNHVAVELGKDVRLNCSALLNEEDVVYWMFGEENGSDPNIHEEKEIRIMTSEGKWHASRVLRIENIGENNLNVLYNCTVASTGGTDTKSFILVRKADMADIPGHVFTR
Protocol: (§1) SPR experiments were performed using Carterra LSA equipped with an HC30M chip (Carterra-Bio). Binding assays were carried out at 25° C. with HBSTE (10 mM HEPES ph7.4, 150 mM NaCl, 3 mM EDTA, 0.05% Tween-20) with 0.5 g/L BSA. A density of anti-human IgG-Fc capture lawn was established on an HC30M chip using amine coupling. […] Coupling of goat anti-human IgG (H+L) multi-species SP ads-UNLB (Southern Biotech, 2087-01) with standard immobilization was done for 15 minutes in 10 mM sodium acetate pH 4.5 and quenched using 1M ethanolamine HCl PH8.5. The anti-human IgG-Fc capture surface was then used to capture a panel of antibodies at 20 μg/mL. Monomeric antigen for human IL-18Rα, human IL-18Rβ, cynomolgus IL-18Rα, or rhesus IL-18Rβ targeted by the antibodies was injected over the captured antibody array at 6 concentrations in 4-fold dilution series starting at 500 nM. Binding data was referenced and blanked from a buffer injected, then globally fit to a 1:1 Langmuir binding model for estimation of ka, kd, and KD using Carterra Kinetics Software.

human IL-18Rα = biological target: T2, human IL-18Rα (human, UniProt Q13478 19-329, limits assumed); experiment: as above
T2 construct: Monomeric antigen injected in SPR; also called huIL18Ra; IL-18R alpha
T2 sequence: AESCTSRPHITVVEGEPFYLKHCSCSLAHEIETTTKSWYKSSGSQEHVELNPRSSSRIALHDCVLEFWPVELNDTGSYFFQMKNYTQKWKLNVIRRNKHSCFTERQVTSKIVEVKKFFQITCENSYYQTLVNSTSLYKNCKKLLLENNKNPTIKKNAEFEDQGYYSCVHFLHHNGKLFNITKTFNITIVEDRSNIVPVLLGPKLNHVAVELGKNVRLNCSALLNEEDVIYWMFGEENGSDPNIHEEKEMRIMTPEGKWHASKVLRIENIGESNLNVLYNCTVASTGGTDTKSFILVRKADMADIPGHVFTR
Protocol: as §1

[1] = biological target: T3, IL-18 receptor (IL-18Rα/IL-18Rβ) overexpressed on HEK-Blue IL-18 cells (Homo sapiens (Human), UniProt Q13478 19-541; O95256 20-599); experiment: cell-based or functional assay
T3 sequence 1: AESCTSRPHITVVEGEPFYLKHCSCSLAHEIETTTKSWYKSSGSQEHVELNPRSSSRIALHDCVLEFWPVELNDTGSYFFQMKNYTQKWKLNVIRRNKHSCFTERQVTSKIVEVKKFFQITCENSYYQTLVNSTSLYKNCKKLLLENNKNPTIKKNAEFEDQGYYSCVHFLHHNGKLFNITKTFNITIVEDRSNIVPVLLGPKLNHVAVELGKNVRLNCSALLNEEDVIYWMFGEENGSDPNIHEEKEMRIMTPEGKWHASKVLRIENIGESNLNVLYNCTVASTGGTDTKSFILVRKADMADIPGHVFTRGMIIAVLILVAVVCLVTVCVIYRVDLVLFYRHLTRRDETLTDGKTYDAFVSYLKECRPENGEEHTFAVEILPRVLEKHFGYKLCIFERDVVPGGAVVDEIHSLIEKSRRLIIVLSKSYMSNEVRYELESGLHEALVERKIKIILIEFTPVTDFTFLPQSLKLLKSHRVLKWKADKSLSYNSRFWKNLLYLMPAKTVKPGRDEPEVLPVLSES
T3 sequence 2: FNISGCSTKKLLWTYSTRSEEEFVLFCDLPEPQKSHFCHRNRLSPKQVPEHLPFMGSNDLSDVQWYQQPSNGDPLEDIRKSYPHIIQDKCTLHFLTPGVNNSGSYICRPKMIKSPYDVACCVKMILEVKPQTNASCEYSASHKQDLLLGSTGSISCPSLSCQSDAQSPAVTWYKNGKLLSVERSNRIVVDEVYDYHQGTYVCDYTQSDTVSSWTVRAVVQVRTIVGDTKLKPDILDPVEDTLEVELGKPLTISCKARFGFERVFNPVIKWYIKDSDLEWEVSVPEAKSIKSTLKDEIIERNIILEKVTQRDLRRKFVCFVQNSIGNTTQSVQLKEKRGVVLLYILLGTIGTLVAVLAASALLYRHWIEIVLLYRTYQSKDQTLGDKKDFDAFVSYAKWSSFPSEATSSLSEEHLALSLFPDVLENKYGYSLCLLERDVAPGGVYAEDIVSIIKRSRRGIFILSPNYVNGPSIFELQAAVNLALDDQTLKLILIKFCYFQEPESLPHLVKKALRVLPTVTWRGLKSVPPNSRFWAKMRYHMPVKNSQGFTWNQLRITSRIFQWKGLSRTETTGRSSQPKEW

[2] = biological target: T3, IL-18 receptor (IL-18Rα/IL-18Rβ) …; experiment: cell-based or functional assay; remark: listed apart in the source
human IL-18Rβ = biological target: T4, human IL-18Rβ (human, UniProt O95256 20-356, limits assumed); experiment: SPR (Carterra LSA), antibody captured on anti-human IgG-Fc, monomeric antigen as analyte, 25 C
T4 construct: Monomeric antigen injected in SPR; also called IL-18R beta; IL-18Rb
T4 sequence: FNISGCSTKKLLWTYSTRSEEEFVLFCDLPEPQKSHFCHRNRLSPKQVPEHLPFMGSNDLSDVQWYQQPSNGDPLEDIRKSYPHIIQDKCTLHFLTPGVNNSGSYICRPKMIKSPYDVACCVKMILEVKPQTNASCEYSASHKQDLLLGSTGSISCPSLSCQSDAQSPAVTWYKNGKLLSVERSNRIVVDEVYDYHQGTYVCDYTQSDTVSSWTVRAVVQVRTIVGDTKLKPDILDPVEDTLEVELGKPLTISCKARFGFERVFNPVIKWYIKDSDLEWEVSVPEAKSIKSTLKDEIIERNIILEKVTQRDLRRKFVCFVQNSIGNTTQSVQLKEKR
Protocol: as §1

B2: DGL012 (bispecific antibody, human IgG1, kappa, L234A L235A)
heavy 1: EVQLVESGGGLVQAGGSLRLSCAASGRTFSDARMGWFRQAPGRERELIAFISWFGSNTNYGSSVKGRFTISRDNTKNTVYLQMNSLKLEDTAVYYCAACRQSICIDSAEYFDDWGQGTQVTVSSDKTHTCPPCPAPEAAGGPSVFLFPPKPKDTLMISRTPEVTCVVVDVSHEDPEVKFNWYVDGVEVHNAKTKPREEQYNSTYRVVSVLTVLHQDWLNGKEYKCKVSNKALPAPIEKTISKAKGQPREPQVCTLPPSRDELTKNQVSLSCAVKGFYPSDIAVEWESNGQPENNYKTTPPVLDSDGSFFLVSKLTVDKSRWQQGNVFSCSVMHEALHNHYTQKSLSLSPG
heavy 2: not shown
light: DIQMTQSPSSLSASVGDRVTITCQASESIDNWLAWYQQKPGQAPKLLIYSASNLASGVPSRFSGSGSGTDFTLTISSLQPEDFATYYCQSTFYGVNPVPNAFGQGTKVVIKRTVAAPSVFIFPPSDEQLKSGTASVVCLLNNFYPREAKVQWKVDNALQSGNSQESVTEQDSKDSTYSLSSTLTLSKADYEKHKVYACEVTHQGLSSPVTKSFNRGEC
HEK-Blue IL-18: Emax (Abs at 630 nm) at 10^8 (average of two replicates) [1]: 0.28 Abs at 630 nm

B3: DGL020 (bispecific antibody, human IgG1, kappa, L234A L235A)
heavy 1: EVQLVESGGGLVQAGGSLRLSCAASGRTFSDARMGWFRQAPGRERELIAFISWFGSNTNYGSSVKGRFTISRDNTKNTVYLQMNSLKLEDTAVYYCAACRQSICIDSAEYFDDWGQGTQVTVSSDKTHTCPPCPAPEAAGGPSVFLFPPKPKDTLMISRTPEVTCVVVDVSHEDPEVKFNWYVDGVEVHNAKTKPREEQYNSTYRVVSVLTVLHQDWLNGKEYKCKVSNKALPAPIEKTISKAKGQPREPQVCTLPPSRDELTKNQVSLSCAVKGFYPSDIAVEWESNGQPENNYKTTPPVLDSDGSFFLVSKLTVDKSRWQQGNVFSCSVMHEALHNHYTQKSLSLSPG
heavy 2: not shown
light: DIQMTQSPSSLSASVGDRVTITCQATEDIESFLAWYQQKPGQAPKLLIYRASTLESGVPSRFSGSGSGTDFTLTISSLQPEDFATYYCQSTVYGVNFVANAFGGGTKVVIKRTVAAPSVFIFPPSDEQLKSGTASVVCLLNNFYPREAKVQWKVDNALQSGNSQESVTEQDSKDSTYSLSSTLTLSKADYEKHKVYACEVTHQGLSSPVTKSFNRGEC
HEK-Blue IL-18: Emax (Abs at 630 nm) at 10^8 (average of two replicates) [1]: 0.37 Abs at 630 nm

B7: VHH505 (VHH)
VHH: QLQLVESGGGLVQAGGSLRLSCAASRSITFSHNVMGWYRQAPGKQRELVASIGSGGSTNYVDSVKGRATISRDNAKKTVYLQMNSLKPEDTAVYYCGVVVGVYRGSLGQGTQVTVSS
notes: also called VHH505_beta
Kd (human IL-18Rβ): 1.6 nM

Other lines, results leading:

Kd (cynomolgus IL-18Rα): 95 nM | Kd (human IL-18Rα): 34 nM
B1: VHH363 (VHH)
VHH: QVQLVESGGGLVQAGGSLRLSCAASGRTFSSYTMGWFRQAPGKEREFVAAISWSAGRTYYADSVKGRFTISRDNAKNTVYLQMNSLKPEDTAVYFCAAEEAPDWAPIDCSGYGCLSLYDYWGQGTQVTVSS
notes: also called VHH363_alpha

HEK-Blue IL-18: Abs 405 [2]: 1.1 Abs | HEK-Blue IL-18: Fold over Background [2]: 9.1 fold
B4: DGL175 (bispecific antibody)
heavy 1: QLQLVESGGGLVQAGGSLRLSCAASRSITFSHNVMGWYRQAPGKQRELVASIGSGGSTNYVDSVKGRATISRDNAKKTVYLQMNSLKPEDTAVYYCGVVVGVYRGSLGQGTQVTVSSGGGSQVQLQESGGGLVQAGGSLRLSCQASGSIATINGMRWWRQAPGKERELVATINSGGSSNYADSVKGRFTISRDNASHTVSLQMNSLKPEDTAVYYCNLYVYSQFPPFSVDDYWGQGARVTVSSDKTHTCPPCPAPEAAGGPSVFLFPPKPKDTLMISRTPEVTCVVVDVSHEDPEVKFNWYVDGVEVHNAKTKPREEQYNSTYRVVSVLTVLHQDWLNGKEYKCKVSNKALPAPIEKTISKAKGQPREPQVCTLPPSRDELTKNQVSLSCAVKGFYPSDIAVEWESNGQPENNYKTTPPVLDSDGSFFLVSKLTVDKSRWQQGNVFSCSVMHEALHNHYTQKSLSLSPG
heavy 2: not shown

HEK-Blue IL-18: Emax (Abs at 630 nm) at 10^8 (average of two replicates) [1]: 0.37 Abs at 630 nm
B5: DGL023 (bispecific antibody, human IgG1, kappa, L234A L235A)
heavy 1: EVQLVESGGGLVQPGGSLRLSCAASGFTRSYYTIAWFRQAPGKEREGISCIRNTDGSTVVSDSVEGRFTISRDNAKNTVFLQMNSLKTEDTAVYYCAARNDRYGGLCSVRHNYEYWGQGTQVTVSSDKTHTCPPCPAPEAAGGPSVFLFPPKPKDTLMISRTPEVTCVVVDVSHEDPEVKFNWYVDGVEVHNAKTKPREEQYNSTYRVVSVLTVLHQDWLNGKEYKCKVSNKALPAPIEKTISKAKGQPREPQVCTLPPSRDELTKNQVSLSCAVKGFYPSDIAVEWESNGQPENNYKTTPPVLDSDGSFFLVSKLTVDKSRWQQGNVFSCSVMHEALHNHYTQKSLSLSPG
heavy 2: not shown
light: DIQMTQSPSSLSASVGDRVTITCQATEDIESFLAWYQQKPGQAPKLLIYRASTLESGVPSRFSGSGSGTDFTLTISSLQPEDFATYYCQSTVYGVNFVANAFGGGTKVVIKRTVAAPSVFIFPPSDEQLKSGTASVVCLLNNFYPREAKVQWKVDNALQSGNSQESVTEQDSKDSTYSLSSTLTLSKADYEKHKVYACEVTHQGLSSPVTKSFNRGEC

Kd (cynomolgus IL-18Rα): 14 nM | Kd (human IL-18Rα): 15 nM
B6: VHH285 (VHH)
VHH: QVQLVESGGGLVQAGGSLRLSCAASGRTFSKHAMGWFRQAPGKEREFVAAIDWSGGSTYYADSVKGRFTISRDNAKNTVYLQMDSLKPEDTAVYYCAADSYTDYAQLWLPELESEYDYWGQGTQVTVSS
notes: also called VHH285_alpha

Reference: patent publication US20240209100A1 (DIAGONAL THERAPEUTICS, published 2024)
